{
  "source": "paper PMC8847413",
  "about": "(Nature Communications, 2022)",
  "binders": {"B1": {"name": "MAb 8D3 (IgG) (antibody, V domains shown)", "VH": "EVQLQQSGPELVKPGASVKISCKTSGYTFTEYTMYWVKQSHGKSLEWIGGINPNIGDTSYNQNFKGKATLTVDRSSSTAYMELRSLTSEDSAVYYCARDGYPYYYALDHWGQGTSVTVSS", "VL": "DIVMTQSQKFMSTSVGDRVSVTCKASQNVGTNVAWYQQKPGQSPKALIYSTSYRYSGVPDRFTGSGSGTDFTLTISNVQSEDLAEYFCQQYNSYPYTFGGGTKLEIK", "notes": "copies: 2 + 2"}, "B2": {"name": "MAb 2H2 (antibody, V domains shown)", "VH": "QVQLKQSGPSLVQPSQSLSITCTVSGFSLTSYGVHWVRQSPGKGLEWLGVMWRGGNTDYNAAFMSRLSITKDNSKSQVFFKMNSLQTDDTAIYYCAKNGGAHAMDFWGQGTSVTVSS", "VL": "NIVLTQSPASLAVSLGQRATISCRASESVDSYGNSFLHWYQQKPGQPPKLLIYLASNLESGVPARFSGSGSRTDFTLTIDPVEADDAATYYCQQNNEDPFTFGSGTKLEIK", "notes": "copies: 2 + 2"}, "B3": {"name": "MAb 3C1 (antibody, V domains shown)", "VH": "EVQLQESGPSLVKPSQTLSLTCSVTGDSITNGYWNWIRKFPGNKLEYMGYISYSGSTYYSPSLKSRISITRDTSKNQHYLQLNSVTSEDTATYYCASDYHGSKYYFDYWGQGTTLTVSS", "VL": "DIVMTQSHKFMSTSVGHRVSITCKASQDVGNDVAWYQQKPGQSPKLLIYWASTRHTGVPDRFTGSGSGTDFTLTISNVQSEDLADYFCQQYNRYPYTFGGGTKLEIK", "notes": "copies: 2 + 2"}},
  "biological_target": "T1, recombinant RBD protein derived from the SARS-CoV-2 WT strain (SARS-CoV-2 wild type (Wuhan-Hu-1), UniProt P0DTC2)",
  "T1 construct": "also called WT-RBD; WT RBD",
  "test": "ELISA",
  "conditions": "both partners purified",
  "data": [
    {"binder": "B1", "values": [
      {"measurement": "binding result", "value": "binds"}
    ]},
    {"binder": "B2", "values": [
      {"measurement": "binding result", "value": "binds"}
    ]},
    {"binder": "B3", "values": [
      {"measurement": "binding result", "value": "binds"}
    ]}
  ]
}
